Measured values: the supplement of paper PMC6757056
± gives the standard deviation of the averaged measurements.

B1: library; a variant is named by its letters at N, in order (parent)
chain: GCUGUCACCGGUGUAUUACCCUAGUGGUCGACCGGUCUGAUGAGUCUNNNNNNAGACGAAACAGC

How the values were obtained:
hypoxanthine [1] = variants of: B1; test: normalized RNA/DNA level with ligand (relative to sTRSVctl = 100) (log10 (% of sTRSVctl)); ligand: hypoxanthine (xanthine aptamer); higher = less ribozyme self-cleavage, higher mRNA level; conditions: ligand concentration (+) RNA-Seq: 5 mM, HEK293T, reporter: mCherry (pCS4076), ligand present: yes
How it was run: (§1)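 Ribozyme switch library plasmids with mCherry reporters (eGFP in certain ligand experiments) went into HEK293T cells at 4 µg per 6-well well. Where ligand was used, it was applied 1 h before transfection, and total RNA was extracted with EDTA 72 h later for reverse transcription, amplification, barcoding and sequencing. RNA level is the RNA-to-DNA read ratio normalized to a spiked-in non-cleaving sequence or to the leading sequences, then scaled and log-transformed. Scaling was ×100 with log10, the leading set comprised 25 sequences, and the cutoff was ≥100 DNA reads.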

hypoxanthine [2] = variants of: B1; test: normalized RNA/DNA level without ligand (relative to sTRSVctl = 100) (log10 (% of sTRSVctl)); ligand: hypoxanthine (xanthine aptamer); higher = less ribozyme self-cleavage, higher mRNA level; conditions: HEK293T, reporter: mCherry (pCS4076), ligand present: no
How it was run: as §1

| Variant | normalized RNA/DNA level with ligand (log10) (hypoxanthine [1]) | normalized RNA/DNA level without ligand (log10) (hypoxanthine [2]) |
| --- | --- | --- |
| GGAGUU | 1.97 ± 0.038 | 1.881 ± 0.0061 |
| GGAGUA | 1.896 ± 0.009 | 1.77 ± 0.018 |
| CCUUGA | 1.97 ± 0.09 | 1.86 ± 0.026 |
| CCUUGU | 1.93 ± 0.15 | 1.88 ± 0.041 |
| UCUCGC | 1.99 ± 0.022 | 1.757 ± 0.0053 |
| UCUCGG | 1.92 ± 0.032 | 1.7302 ± 0.00058 |
| UCUCGA | 1.93 ± 0.057 | 1.832 ± 0.013 |
| UCUCGU | 1.96 ± 0.053 | 1.83 ± 0.045 |
| UCUGCU | 1.968 ± 0.0085 | 1.924 ± 0.0035 |
| UCUGCC | 2.04 ± 0.021 | 1.89 ± 0.022 |
| UCUGCG | 2.01 ± 0.08 | 1.73 ± 0.015 |
| UCUGCA | 1.92 ± 0.024 | 1.88 ± 0.059 |
| UGAGCA | 1.97 ± 0.04 | 1.805 ± 0.0096 |
| ACUUAU | 1.9 ± 0.029 | 1.729 ± 0.014 |
| ACUUAC | 1.93 ± 0.046 | 1.84 ± 0.052 |
| UCUCUU | 1.94 ± 0.043 | 1.814 ± 0.017 |
| UCUCUC | 2.025 ± 0.016 | 1.94 ± 0.09 |
| UGAAUG | 1.9 ± 0.0011 | 1.75 ± 0.061 |
| UGAAUU | 1.93 ± 0.021 | 1.897 ± 0.014 |

| Variant | normalized RNA/DNA level with ligand (log10) (hypoxanthine [1]) | normalized RNA/DNA level without ligand (log10) (hypoxanthine [2]) |
| --- | --- | --- |
| UGAAUC | 1.943 ± 0.013 | 1.96 ± 0.022 |
| UGAAUA | 1.93 ± 0.026 | 1.86 ± 0.019 |
| AGAAGU | 1.85 ± 0.034 | 1.51 ± 0.029 |
| AGAAGC | 1.918 ± 0.0099 | 1.7002 ± 0.0015 |
| ACUGUC | 1.99 ± 0.026 | 1.898 ± 0.0079 |
| ACUGUA | 1.93 ± 0.062 | 1.78 ± 0.036 |
| ACUGUU | 1.9396 ± 0.00019 | 1.81 ± 0.05 |
| UCUGUA | 1.95 ± 0.024 | 1.8296 ± 0.0016 |
| UCUGUC | 1.96 ± 0.0083 | 1.956 ± 0.011 |
| UCUGUU | 1.98 ± 0.035 | 1.88 ± 0.034 |
| UGAGUA | 1.902 ± 0.015 | 1.81 ± 0.091 |
| UGAGUU | 1.92 ± 0.039 | 1.85 ± 0.042 |
| GCUCCU | 2.027 ± 0.006 | 1.981 ± 0.015 |
| GCUCCC | 1.93 ± 0.043 | 1.84 ± 0.02 |
| GCUCCA | 1.936 ± 0.018 | 1.81 ± 0.025 |
| GCUCCG | 1.88 ± 0.12 | 1.38 ± 0.075 |
| CGAGGA | 1.975 ± 0.0031 | 1.713 ± 0.011 |
| CGAGGC | 1.97 ± 0.024 | 1.89 ± 0.0058 |
| ACUUGG | 1.88 ± 0.029 | 1.38 ± 0.068 |

| Variant | normalized RNA/DNA level with ligand (log10) (hypoxanthine [1]) | normalized RNA/DNA level without ligand (log10) (hypoxanthine [2]) |
| --- | --- | --- |
| ACUUGA | 1.935 ± 0.017 | 1.72 ± 0.027 |
| ACUUGU | 1.91 ± 0.086 | 1.77 ± 0.11 |
| ACUUGC | 1.9727 ± 0.00052 | 1.822 ± 0.0021 |
| UCUUCU | 1.979 ± 0.0024 | 1.94 ± 0.099 |
| UCUUCA | 1.97 ± 0.11 | 1.8691 ± 0.00053 |
| UCUUCC | 2.022 ± 0.017 | 1.92 ± 0.024 |
| UCUUCG | 1.93 ± 0.086 | 1.7 ± 0.11 |
| AGACUG | 1.89 ± 0.045 | 1.58 ± 0.036 |
| AGACUA | 1.95 ± 0.056 | 1.762 ± 0.0092 |
| GGACUC | 1.9331 ± 0.00093 | 1.92 ± 0.085 |
| GGACUU | 1.94 ± 0.04 | 1.89 ± 0.04 |
| GGACUA | 1.91 ± 0.09 | 1.84 ± 0.023 |
| ACUCAC | 1.994 ± 0.0082 | 1.97 ± 0.013 |
| ACUCAG | 1.89 ± 0.04 | 1.529 ± 0.0011 |
| ACUUCU | 1.91 ± 0.12 | 1.889 ± 0.0063 |
| ACUUCA | 1.95 ± 0.025 | 1.922 ± 0.013 |
| ACUUCC | 1.928 ± 0.015 | 1.923 ± 0.0089 |
| CCUCGC | 1.92 ± 0.054 | 1.92 ± 0.029 |
| CCUCGU | 1.98 ± 0.026 | 1.87 ± 0.031 |
